Data taken from patent US20230312722A1 (NONA BIOSCIENCES SUZHOU, published 2023).

T1: human B7H4 on the cell surface (human, UniProt Q7Z7D3 25-282)
T1 construct: whole, on cells; also called CHOK1/hu B7H4; B7H4 on SK-BR-3
T1 sequence (looked up): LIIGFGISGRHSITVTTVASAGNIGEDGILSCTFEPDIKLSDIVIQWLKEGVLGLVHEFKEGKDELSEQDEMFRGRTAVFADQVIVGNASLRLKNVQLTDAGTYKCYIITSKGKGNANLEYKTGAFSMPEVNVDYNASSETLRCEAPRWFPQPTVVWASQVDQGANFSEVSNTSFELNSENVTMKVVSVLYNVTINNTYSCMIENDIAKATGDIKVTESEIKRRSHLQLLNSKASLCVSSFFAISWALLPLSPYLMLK

T2: human B7-H4 (recombinant protein of the BLI affinity assay, Example 7.2) (human, UniProt Q7Z7D3 29-258, limits assumed)
T2 construct: also called human B7H4 protein
T2 sequence (looked up): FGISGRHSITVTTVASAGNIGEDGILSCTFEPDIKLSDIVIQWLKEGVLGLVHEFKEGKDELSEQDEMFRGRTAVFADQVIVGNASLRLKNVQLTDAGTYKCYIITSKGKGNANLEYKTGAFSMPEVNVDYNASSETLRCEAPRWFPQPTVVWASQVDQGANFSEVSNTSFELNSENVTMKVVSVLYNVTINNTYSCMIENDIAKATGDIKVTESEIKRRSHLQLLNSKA

T3: mouse B7H4 on the cell surface (mouse, UniProt Q7TSP5 25-257)
T3 construct: whole, on cells; also called CHOK1/m B7H4
T3 sequence (looked up): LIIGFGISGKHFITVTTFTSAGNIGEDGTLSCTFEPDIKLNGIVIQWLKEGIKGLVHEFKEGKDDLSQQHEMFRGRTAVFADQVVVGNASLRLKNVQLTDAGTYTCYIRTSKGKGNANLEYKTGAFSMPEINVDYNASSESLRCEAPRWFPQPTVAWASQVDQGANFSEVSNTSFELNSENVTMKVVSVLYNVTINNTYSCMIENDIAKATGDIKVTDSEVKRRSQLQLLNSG

T4: cynomolgus monkey B7H4 on the cell surface (cynomolgus monkey, UniProt A0A2K5U6P5 25-282)
T4 construct: whole, on cells; also called CHOK1/cyno B7H4
T4 sequence: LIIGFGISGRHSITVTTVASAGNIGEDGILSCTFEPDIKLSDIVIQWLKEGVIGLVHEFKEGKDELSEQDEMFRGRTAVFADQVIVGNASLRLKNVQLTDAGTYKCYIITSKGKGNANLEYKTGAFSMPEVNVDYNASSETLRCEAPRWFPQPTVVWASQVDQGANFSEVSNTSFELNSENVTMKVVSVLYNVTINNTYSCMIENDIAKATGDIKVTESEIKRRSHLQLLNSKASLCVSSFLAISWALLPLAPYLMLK


How the values were obtained:
[1] = biological target: T1, human B7H4 on the cell surface; experiment: FACS on MDA-MB-468 cells (head of the figure); the same number stands in Table 2-3 of the text under the head SK-BR-3
[2] = biological target: T1, human B7H4 on the cell surface; experiment: FACS on MDA-MB-468 cells; in the drawn table the number stands under the head 'EC50 (nM)' (the two heads are interchanged)
[3] = biological target: T2, human B7-H4 (recombinant protein of the …); experiment: BLI (Octet Red 96e), antibody captured on AHC sensor, human B7-H4 in solution, 1:1 global fit
Experimental: When the affinity of the antigen for the antibody was determined, the rotation speed of the sensor was set at 1000 rpm/min. The AHC sensors (Fortebio, #18-5060) placed in a row were equilibrated for 10 minutes in a test buffer before the AHC sensors were used to capture the B7-H4 antibodies at a capture height of 0.7 nm; the AHC sensors, after equilibrated in the buffer for 120 s, bound to 2-fold serially diluted human B7-H4 (concentrations were 50 nM-3.125 nM and 0 nM) for 180 s, followed by dissociation for 300 s. Finally, the AHC sensor was immersed in a 10 mM glycine-hydrochloric acid solution at pH 1.5 for regeneration to elute the proteins bound to the sensor.
When data analysis was performed using Octet Data Analysis software (Fortebio, version 11.0), 0 nM was taken as a reference well, and reference subtraction was performed; the “1:1 Global fitting” method was selected to fit the data, and the kinetics parameters of the binding of antigens to antigen-binding proteins were calculated, with kₒₙ (1/Ms) values, kdis (1/s) values and KD(M) values obtained (see Table 7-2).

[4] = biological target: T1, human B7H4 on the cell surface; experiment: FACS on MDA-MB-468 cells; in the drawn table the number stands under the head 'Maximum MFI' (the two heads are interchanged); the head says nM, the axis of the curve µg/mL
[5] = biological target: T1, human B7H4 on the cell surface; experiment: FACS, tumor cells (table head: SK-BR-3)
Experimental: (§1) This example is intended to investigate the in vitro binding activity of anti-human B7H4 H2L2 monoclonal antibody to human/cynomolgus monkey/mouse B7H4. Antibody binding experiments at the cellular level were performed using CHOK1 cell line overexpressing human B7H4 (CHOK1/hu B7H4, Harbour BioMed), CHOK1 cell line overexpressing cynomolgus monkey B7H4 (CHOK1/cyno B7H4, Harbour BioMed), CHOK1 cell line overexpressing mouse B7H4 (CHOK1/m B7H4, Harbour BioMed) and SK-BR-3 cell line (ATCC® HTB-30) highly expressing human B7H4. Briefly, CHOK1/hu B7H4 cells, CHOK1/cyno B7H4 cells, CHOK1/m B7H4 cells or SK-BR-3 cells were digested and resuspended with PBS containing 2% BSA. The cell density was adjusted to 1×10⁶ cells/mL. The cells were seeded in a 96-well V-bottom plate (Corning, #3894) at 100 μL/well, followed by the addition of test antibodies diluted in a 3-fold concentration gradient of 2 times the final concentration, each at 100 μL/well. The cells were incubated at 4° C. for 2 h away from light. Thereafter, the cells in each well were rinsed twice with 100 μL of pre-cooled PBS containing 2% BSA, and centrifuged at 500 g at 4° C. for 5 min, and then the supernatant was discarded. […] Finally, the cells in each well were resuspended with 200 μL of pre-cooled PBS containing 2% BSA, and the fluorescence signal values were read using an ACEA Novocyte3000 flow cytometer.

[6] = biological target: T1, human B7H4 on the cell surface; experiment: FACS on MDA-MB-468 cells
[7] = biological target: T3, mouse B7H4 on the cell surface; experiment: FACS, CHOK1/m B7H4 cells (FIG. 5)
Experimental: as §1

[8] = biological target: T1, human B7H4 on the cell surface; experiment: FACS, SK-BR-3 cells
Experimental: (§2) This example is intended to investigate the in vitro binding activity of anti-human B7H4 H2L2 monoclonal antibody to human/cynomolgus monkey/mouse B7H4. Antibody binding experiments at the cellular level were performed using CHOK1 cell line overexpressing human B7H4 (CHOK1/hu B7H4, Harbour BioMed), CHOK1 cell line overexpressing cynomolgus monkey B7H4 (CHOK1/cyno B7H4, Harbour BioMed), CHOK1 cell line overexpressing mouse B7H4 (CHOK1/m B7H4, Harbour BioMed) and SK-BR-3 cell line (ATCC® HTB-30) highly expressing human B7H4. Briefly, CHOK1/hu B7H4 cells, CHOK1/cyno B7H4 cells, CHOK1/m B7H4 cells or SK-BR-3 cells were digested and resuspended with PBS containing 2% BSA. The cell density was adjusted to 1×10⁶ cells/mL. The cells were seeded in a 96-well V-bottom plate (Corning, #3894) at 100 μL/well, followed by the addition of test antibodies diluted in a 3-fold concentration gradient of 2 times the final concentration, each at 100 μL/well. The cells were incubated at 4° C. for 2 h away from light. Thereafter, the cells in each well were rinsed twice with 100 μL of pre-cooled PBS containing 2% BSA, and centrifuged at 500 g at 4° C. for 5 min, and then the supernatant was discarded. Then 100 μL of a fluorescent secondary antibody (Alexa Fluor 488-conjugated AffiniPure Goat Anti-Human IgG, Fcγ Fragment Specific, Jackson, #109-545-098, 1:500 diluted) was added to each well. The plate was incubated away from light at 4° C. for 1 h. The cells in each well were washed twice with 100 μL of pre-cooled PBS containing 2% BSA, and centrifuged at 500 g at 4° C. for 5 minutes, and then the supernatant was discarded. Finally, the cells in each well were resuspended with 200 μL of pre-cooled PBS containing 2% BSA, and the fluorescence signal values were read using an ACEA Novocyte3000 flow cytometer.

[9] = biological target: T1, human B7H4 on the cell surface; experiment: FACS, CHOK1/hu B7H4 cells
Experimental: as §2

[10] = biological target: T4, cynomolgus monkey B7H4 on the cell …; experiment: FACS, CHOK1/cyno B7H4 cells
Experimental: as §2

Row | Binder | EC50 [1] | Maximum MFI [2] | Kd [3] | koff [3] | kon [3] | EC50 [4] | EC50 [5] | EC50 (read off the curve) [6] | binding result [7] | EC50 [8] | Maximum MFI [8] | EC50 [9] | Maximum MFI [9] | EC50 [10] | Maximum MFI [10]
1 | PR003369 (antibody, human IgG1, kappa, V domains shown, L: N92R; Fc S239D, I332E), human IgG1) VH: QVQLVESGGGVVQPGRSLRLSCAASGFTFRSFGMHWVRQAPGKGLEWVAVISYDASNEYYADSVKGRFIISRDNSKDTLYLQMNSLRAGDTAVYYCAKGGALRWYFAYWGQGTLVTVSS VL: EIVMTQSPATLSVSPGERATLSCRASQSISSNLGWYQQKPGQAPRLLIYGASTRATGIPARFSGSGSGTEFTLTISSLQSEDFAVYYCQQYRSWPPLTFGGGTKVEIKR | 0.434 nM | 204000 | 1.39 nM | 0.000394 s⁻¹ | 283000 M⁻¹ s⁻¹ | 0.0508 nM | 0.434 nM | ~0.05 µg/mL | – | – | – | – | – | – | –
2 | PR002038 (antibody, human IgG1, kappa, V domains shown, Initial antibody, human IgG1; also called 1025_B-2A1) VH: QVQLVQSGAEVKKPGSSMRVSCKASEDTFSSYAISWVRQAPGQGLEWMGGTAPIFGTTNYAQKFQGRVTITADKSTSTAYMELSSLRSEDTAVYYCARGGPYFDYWGQGTLVTVSS VL: DIQLTQSPATLSVSPGERATLSCRASQSVSSNLAWYQQKPGQAPRLLIYGDYIRATGIPARFSGSGSGTEFTLTISSLQSEDIATYYCQQYVDLPITFGQGTRLEIKR | – | – | – | – | – | – | – | – | no binding | 85.6 nM | 82800 MFI | 20 nM | 1.15e+06 MFI | 24.8 nM | 677000 MFI
